Here are results for two molecules from patent US20230203111A1 (published 2023).

The assay has as its target T1, TFR1 (human source) (human, UniProt P02786 89-760, limits assumed).
T1 construct: Soluble reagent added at 2 µg/mL to ferritin-coated ELISA plates; also called Tfr1 receptor; Tfr-1 receptor
The experiment in a line: ELISA, ferritin coated, human TFR1 2 µg/mL.

Where a chain is given by its changes, count along the chain named.

T1 sequence (P02786 89-760 limits assumed): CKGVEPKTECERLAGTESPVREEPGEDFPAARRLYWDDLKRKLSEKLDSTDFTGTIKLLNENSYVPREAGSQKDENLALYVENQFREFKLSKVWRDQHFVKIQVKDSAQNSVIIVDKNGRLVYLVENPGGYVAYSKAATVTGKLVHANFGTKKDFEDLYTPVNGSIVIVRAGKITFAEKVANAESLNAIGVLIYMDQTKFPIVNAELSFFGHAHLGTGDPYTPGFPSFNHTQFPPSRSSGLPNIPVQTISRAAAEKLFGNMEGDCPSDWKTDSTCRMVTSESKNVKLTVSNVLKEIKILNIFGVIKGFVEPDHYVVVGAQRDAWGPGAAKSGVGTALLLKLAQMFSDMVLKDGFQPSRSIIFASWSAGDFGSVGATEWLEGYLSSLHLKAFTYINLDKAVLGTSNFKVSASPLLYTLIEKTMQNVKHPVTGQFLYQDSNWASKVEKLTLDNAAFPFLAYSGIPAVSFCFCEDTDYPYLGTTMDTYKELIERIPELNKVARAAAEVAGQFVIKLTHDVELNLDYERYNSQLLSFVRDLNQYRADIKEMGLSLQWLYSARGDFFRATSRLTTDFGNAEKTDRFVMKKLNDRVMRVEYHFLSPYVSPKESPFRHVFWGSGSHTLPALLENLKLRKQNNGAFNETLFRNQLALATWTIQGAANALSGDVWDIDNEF

B1: HFn-Mt-3 (ligand)
chain: TTASTSQVRQNYHQDSEAAINRQINLELYASYVYLSMSYYFDRDDVALKNFAKYFLHQSHEEREHAEKLMKLQNQRGGRICLQDIKKPDSDDWESGLNAMESALHLEKNVNQSLLELHKLATDKNDPHLSDFIETHYLNEQVKAIKELGDHVTNLRKMGAPESGLAEYLFDKHTLGDSDNES
notes: cage protein; also called HFn-Mut-3
Regarding B1, the binding result was “no binding”.

B2: HFn-Mt-5 (ligand)
chain: B1 chain with C81F, Q83C
notes: cage protein; also called HFn-Mut-5
Consider B2, for which the binding result is reported as “no binding”.
